Results reported in patent US20150335719A1, “Intravitreal Injection of a Chimeric Phage Endolysin Ply187; Protection from Staphylococcus aureus Endophthalmitis” (priority 2014, published 2015).

Columns and labels:
[1] = tested on: S. aureus (strain RN6390, USA 300, R 2932, R 2952, R 3000) biofilms; assay: Biofilm disruption (Live/Dead BacLight staining and CFU count); type: cell-based, Staphylococcus aureus; details: 24 h biofilms treated for 30 min
Description: FIGS. 2A-2E depicts the biofilm disruption activity of chimeric Ply187AN-KSH3b. In FIG. 2A-2E, either chimeric Ply187AN-KSH3b or EB (EB C) or Gentamicin (for MDR/MRSA strains/isolates) was applied to cover slips containing S. aureus RN6390 (FIG. 2A), USA 300 (FIG. 2B), R 2932 (FIG. 2C), R 2952 (FIG. 2D) and R3000 (FIG. 2E) biofilms for 30 min. Bacterial killing was assessed via Live/Dead™ staining and subsequent fluorescence microscopy. FIG. 2F depicts the viability of biofilm associated bacteria enumerated by CFU count. Error bars represent the mean±SEM of two independent experiments performed in triplicate.
Biofilm disruption by the chimeric Ply187AN-KSH3b was observed using Live/Dead BacLight™ staining which takes advantage of SYTO™ 9, a green-fluorescent nucleic acid stain and propidium iodide that fluoresces red. SYTO™ 9 labels a bacterial population with an intact membrane and fluoresces green. In contrast, propidium iodide penetrates bacteria with damaged membranes and fluoresces red. Briefly, static biofilms of S. aureus (strain RN6390, USA 300, R 2932, R 2952, R 3000) were grown on glass cover slips in 6 well tissue culture plates in fresh TSB media seeded with S. aureus. After incubation at 37° C. for 24 h, the biofilms were treated for an additional 30 min with chimeric Ply187AN-KSH3b (as per MIC) diluted in EB or with EB/gentamicin alone. The biofilms were then stained with the Live/Dead BacLight™ bacterial viability kit (Invitrogen, Carlsbad, Calif.), per manufacturer's instruction. The cover slips were washed three times with PBS to remove excess stain and cell debris, mounted with mounting oil on a glass slide, and examined with an Eclipse 90i fluorescence microscope (Nikon, Melville, N.Y.).

[2] = tested on: S. aureus RN6390 endophthalmitis; assay: Mouse S. aureus endophthalmitis: histology (H&E) and TUNEL staining of retina; type: in vivo, C57BL/6 mice
Description: FIGS. 3A-3E show the effects of intravitreal injection of chimeric Ply187AN-KSH3b on the severity of S. aureus endophthalmitis. The eyes (n=10) of C57BL/6 mice were infected with S. aureus strain RN6390 and following either 6 h or 12 h post-infection, Ply187AN-KSH3b or EB (EB C) was administered by intravitreal injection. FIG. 3A depicts individual eyes assigned clinical scores (range 0 to 4; black dots represent an eye) and presented as mean clinical scores (bar with SEM). […] FIG. 3E depicts the total number of dead cells in the retinal sections that were counted and are presented as mean±SD of the TUNEL positive cells. A student's t test (**, p<0.005) was used for the statistical analysis and comparisons were made between the S. aureus (SA) control, SA+EBC, and SA+Ply187AN-KSH3b-treated group.
The embedding, sectioning, and Hematoxylin and Eosin (H & E) staining was performed by Excalibur Pathology Inc. (Oklahoma City, Okla.). For immunostaining, the eyes were fixed in Tissue-Tek® O.C.T. (Sakura, Torrance, Calif.) and five-micrometer-thick sagittal sections were collected from each eye and mounted onto microscope slides. TUNEL staining was performed on retinal cryo-sections using ApopTag® Fluorescein In situ Apoptosis Detection Kit as per manufacturer's instruction (Millipore, Billerica, Mass.).

[3] = tested on: inflammatory cytokines/chemokines in S. aureus-infected eyes; assay: Mouse S. aureus endophthalmitis: inflammatory cytokines/chemokines by ELISA; type: in vivo, C57BL/6 mice
Description: Following treatment with chimeric Ply187AN-KSH3b or EB (EB C), the eyes (n=4 per time point) were enucleated and 10 μg protein lysate was used for the detection of indicated inflammatory cytokines/chemokines by ELISA. *p<0.05, **p<0.005 (student t-test, SA or EB vs. Ply187AN-KSH3b-treated)
To measure the inflammatory cytokines, retinal extracts were processed by homogenization in 250 μl of PBS, followed by centrifugation at 12,000×g for 10 min. PBS-injected mice were used as normal controls (PBS C) and EB-treated mice were used as vehicle controls (EB C). The protein concentration of the retinal lysate was determined by the Micro BCA™ protein assay kit (Thermoscientific, Rockford, Ill.). Equal amounts of protein were used to perform the ELISA, per the manufacturer's instructions (BD biosciences, San Diego, Calif. (IL-6, IL1β & TNFα) and R & D systems, Minneapolis, Minn. (MIP2 & KC).

[4] = tested on: retinal function in S. aureus-infected eyes; details: treatment 6 h post infection, ERG 24 h post treatment
Description: The percentage amplitude of the a- and b-waves retained in S. aureus (SA)-infected, treated and untreated mice were compared to normal uninfected mice and presented as mean±SD (FIG. 7D).
Scotopic ERG was used to determine retinal function following S. aureus infection and chimeric Ply187AN-KSH3b treatment (6 h post infection). The mice (control, infected and infected+treated) were anesthetized 24 h post Ply187AN-KSH3b treatment, maintained at 37° C. using a heat pad, and the pupils were dilated using 1% tropicamide ophthalmic solution. ERGs were recorded following bilateral mydriasis and at least 4 h of dark adaptation. Silver embedded thread eye electrodes (Ocuscience™ LLC, Kansas City, Mo.) were used to record the ERG. Reference needle electrodes (stainless steel subdermal needle electrodes) were placed in anterior scalp and a ground needle electrode was placed in the tail. ERG responses were acquired using an ERG system (Ocuscience™ LLC, Kansas City, Mo.) and analyzed using ERGVIEW 4.380V. Ganzfeld light stimulus was used to present ten 10 ms flashes, with light intensities, increasing from 0.0001 to 100 cd-s/m^2. The ERG a-wave was measured as amplitude between the ERG baseline and the first negative peak, and the ERG b-wave was measured as amplitude between the first negative peak and the first positive peak.

[5] = tested on: staphylococci; details: Mao et al.; cited from earlier work
[6] = 6 h and 12 h treatment, vs vehicle-treated and S. aureus control eyes

B1: Ply187AN-KSH3b: staphylococcal peptidoglycan hydrolase fusion protein: endopeptidase domain of prophage endolysin Ply187 plus SH3b cell wall-binding domain of phage K endolysin LysK (SEQ ID NO:1) (protein)
chain: MALPKTGKPTAKQVVDWAINLIGSGVDVDGYYGRQCWDLPNYIFNRYWNFKTPGNARDMAWYRYPEGFKVFRNTSDFVPKPGDIAVWTGGNYNWNTWGHTGIVVGPSTKSYFYSVDQNWNNSNSYVGSPAAKIKHSYFGVTHFVRPAYKAEPKPTPPLESTPATRPVTGSWKKNQYGTWYKPENATFVNGNQPIVTRIGSPFLNAPVGGNLPAGATIVYDEVCIQAGHIWIGYNAYNGNRVYCPVRTCQGVPPNQIPGVAWGVFKVEHHHHHH
modifications: Chemically Synthesized Fusion Protein
[1]
  biofilm disruption by Live/Dead staining: successfully disrupted biofilms
[1]; all strains tested
  CFU counts of biofilm associated bacteria: almost zero
[2]; 1 μg/eye intravitreal
  histological analysis (H&E) of retina: preserved the integrity of the retina
[2]; retinal sections
  TUNEL+ cells (retinal cell death), average: 17.66 TUNEL^+ cells/eye
[3]; [6]
  level of IL-1β: dramatically reduced levels
  level of IL-6: dramatically reduced levels
  level of KC (CXCL1): dramatically reduced levels
  level of MIP2 (CXCL2): dramatically reduced levels
  level of TNFα: dramatically reduced levels
[3]; 6 h vs. 12 h treatment
  MIP-2 reduction, 6 h compared with 12 h treatment: greater reduction after 6 h vs. 12 h treatment
[4]
  ERG a- and b-wave amplitudes: no significant decline in a- or b-wave amplitudes
[4]; vs uninfected
  a- and b-wave amplitudes retained: 90-95%
[5]
  antimicrobial effectiveness relative to Ply187, Ply187AN and LysK: more effective antimicrobial than the full-length Ply187 or the truncated Ply187 (Ply187AN)
